Test results as given in patent US20180185450A1 (Sanofi, published 2018).
Numbered stars: 1 amine (or outer) side, 2 acyl side, 3 side chain; on linkers, the order of the positions; unused ones are H or OH. Square brackets hold non-standard residues; d marks the D form. Side chains are listed from the residue outwards. Ends that are not written are not given here. γGlu = O=C(O)[C@H](CCC(=O)[*:2])N[*:1]; X70 = not defined here; x53 = not defined here; x70 = not defined here; x76 = not defined here; Aib = CC(C)(N)C(=O)O

Tests used:
human GLP-1 receptor = human GLP-1 receptor (human, UniProt P43220 24-463); experiment: cell-based or functional assay
human glucagon receptor = human glucagon receptor (human, UniProt P47871 26-477); experiment: cell-based or functional assay
Sequence of human glucagon receptor (P47871 26-477): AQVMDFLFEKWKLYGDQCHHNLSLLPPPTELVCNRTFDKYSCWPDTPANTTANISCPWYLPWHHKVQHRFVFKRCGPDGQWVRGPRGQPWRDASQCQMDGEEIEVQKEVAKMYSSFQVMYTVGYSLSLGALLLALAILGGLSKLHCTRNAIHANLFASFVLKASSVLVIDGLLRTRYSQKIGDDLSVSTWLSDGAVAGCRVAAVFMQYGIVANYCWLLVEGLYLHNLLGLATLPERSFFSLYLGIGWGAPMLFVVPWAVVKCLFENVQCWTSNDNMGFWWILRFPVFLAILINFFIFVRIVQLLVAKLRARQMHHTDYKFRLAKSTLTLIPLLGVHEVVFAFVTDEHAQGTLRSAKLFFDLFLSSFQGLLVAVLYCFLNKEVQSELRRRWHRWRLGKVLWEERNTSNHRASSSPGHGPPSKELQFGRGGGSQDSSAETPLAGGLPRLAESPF

Row | Binder | EC50 hGLP-1R (cAMP) (human GLP-1 receptor) [pM] | EC50 hGlucagon-R (cAMP) (human glucagon receptor) [pM]
1 | H[Aib]QGTFTSDLSKQK([γGlu-X70])DEQRAKEFIEWLKSGGPSSGAPPPS-NH2 (reading uncertain) [SEQ ID NO: 174] | 2.6 | 1.9
2 | HSHGTFTSDLSKQK([γGlu-x53])ESRRAQDFIEWLKAGGPSSGAPPPS-NH2 (reading uncertain) [SEQ ID NO: 208] | 2 | 1.3
3 | H[Aib]QGTFTSDLSKQK([γGlu-x76])ESRAAQDFIEWLKAGGPSSGAPPPS-NH2 (reading uncertain) [SEQ ID NO: 202] | 26.2 | 6.9
4 | H[Aib]QGTFTSDLSKQK([γGlu-γGlu-x53])DEEAARLFIEWLKAGGPSSGAPPPS-NH2 (reading uncertain) [SEQ ID NO: 226] | 1.4 | 19.1
5 | H[Aib]QGTFTSDLSKQK([γGlu-x70])DEQKAKLFIEWLKSGGPSSGAPPPS-NH2 (reading uncertain) [SEQ ID NO: 206] | 3.2 | 12.5
6 | H[Aib]QGTFTSDLSKQK([γGlu-X70])DEQRAKDFIEWLKSGGPSSGAPPPS-NH2 (reading uncertain) [SEQ ID NO: 175] | 2.5 | 3.1
7 | H[Aib]QGTFTSDLSKQK([γGlu-X70])DEQRAKEFIEWLKAGGPSSGAPPPS-NH2 (reading uncertain) [SEQ ID NO: 152] | 3.2 | 2.3
8 | H[Aib]QGTFTSDLSKQK([γGlu-x70])DSRRAQLFIEWLKAGGPSSGAPPPS-NH2 (reading uncertain) [SEQ ID NO: 198] | 8.2 | 2.4
9 | H[Aib]QGTFTSDLSKQK([γGlu-x76])ESRAAQLFIEWLKAGGPSSGAPPPS-NH2 (reading uncertain) [SEQ ID NO: 203] | 34.9 | 13.1
10 | HXHGTFTSDLSKQKEEEAARLFIEWLKAGGPSSGAPPPS (dSer at 2; K(γE-X70) at 14; C-terminal NH2) [SEQ ID NO: 219] | 2.1 | 3.7
11 | HXQGTFTSDLSKQKEEEAAKLFIEWLKAGGPSSGAPPPS (dSer at 2; K(γE-x53) at 14; C-terminal NH2) [SEQ ID NO: 19] | 1.9 | 104
12 | HXHGTFTSDLSKQKDEEAARLFIEWLKAGGPSSGAPPPS (dSer at 2; K(γE-X70) at 14; C-terminal NH2) [SEQ ID NO: 220] | 2 | 2.3
13 | HXQGTFTSDLSKQKDEQRAKDFIEWLKAXGPSSGAPPPS (Aib at 2; K(γE-x70) at 14; dAla at 29; C-terminal NH2) [SEQ ID NO: 199] | 10.1 | 7.2
14 | HXQGTFTSDLSKQKDKRRAQLFIEWLKAXGPSSGAPPPS (Aib at 2; K(γE-x70) at 14; dAla at 29; C-terminal NH2) [SEQ ID NO: 210] | 6.7 | 3
15 | HXQGTFTSDLSKQKDEQAAKLFIEWLKAXGPSSGAPPPS (Aib at 2; K(γE-x76) at 14; dAla at 29; C-terminal NH2) [SEQ ID NO: 201] | 22.7 | 29.6
16 | HXQGTFTSDLSKQKDEQRAKLFIEWLKAXGPSSGAPPPS (Aib at 2; K(γE-x70) at 14; dAla at 29; C-terminal NH2) [SEQ ID NO: 200] | 4.6 | 4.4
17 | H[Aib]QGTFTSDLSKQK([γGlu-x53])DSQAAQDFIEWLKAGGPSSGAPPPS-NH2 (reading uncertain) [SEQ ID NO: 155] | 2.5 | 25.1
18 | HXQGTFTSDLSKQKESRRAQLFIEWLKAXGPSSGAPPPS (Aib at 2; K(γE-x70) at 14; dAla at 29; C-terminal NH2) [SEQ ID NO: 205] | 12.3 | 5.2
19 | H[Aib]QGTFTSDLSKQK([γGlu-X70])DEEAARLFIEWLKAGGPSSGAPPPS-NH2 (reading uncertain) [SEQ ID NO: 214] | 4.2 | 16
20 | H[Aib]QGTFTSDLSKQK([γGlu-x70])DEEAAKLFIEWLKAGGPSSGAPPPS-NH2 (reading uncertain) [SEQ ID NO: 213] | 2.7 | 59.1
21 | H[Aib]HGTFTSDLSKQK([γGlu-γGlu-x53])DEEAARLFIEWLKAGGPSSGAPPPS-NH2 (reading uncertain) [SEQ ID NO: 227] | 1.4 | 1.1
22 | H[Aib]QGTFTSDLSKQK([γGlu-X70])DSQAAQDFIEWLKAGGPSSGAPPPS-NH2 (reading uncertain) [SEQ ID NO: 156] | 2.9 | 12.5

Row | Binder | EC50 hGLP-1R (cAMP) (human GLP-1 receptor) [pM] | EC50 hGlucagon-R (cAMP) (human glucagon receptor) [pM]
23 | H[Aib]HGTFTSDLSKQK([γGlu-X70])EEEAARLFIEWLKAGGPSSGAPPPS-NH2 (reading uncertain) [SEQ ID NO: 217] | 4.3 | 2.1
24 | H[Aib]QGTFTSDLSKQK([γGlu-X70])DSRRAQDFIEWLKAGGPSSGAPPPS-NH2 (reading uncertain) [SEQ ID NO: 162] | 3.1 | 2.4
25 | H[Aib]QGTFTSDLSKQK([γGlu-γGlu-x53])DEQRAKEFIEWLKSGGPSSGAPPPS-NH2 (reading uncertain) [SEQ ID NO: 207] | 1.1 | 1.2
26 | HXQGTFTSDLSKQKDSKAAQDFIEWLKAGGPSSGAPPPS (dSer at 2; K(γE-γE-x53) at 14; C-terminal NH2) [SEQ ID NO: 140] | 1.3 | 1.5
27 | HXQGTFTSDLSKQKDEEAARLFIEWLKAGGPSSGAPPPS (dSer at 2; K(γE-X70) at 14; C-terminal NH2) [SEQ ID NO: 222] | 1.8 | 2.9
28 | HXQGTFTSDLSKQKESRAAQLFIEWLKAXGPSSGAPPPS (Aib at 2; K(γE-x76) at 14; dAla at 29; C-terminal NH2) [SEQ ID NO: 204] | 34.1 | 12.5
29 | HXQGTFTSDLSKQKDSKAAQDFIEWLKSGGPSSGAPPPS (dSer at 2; K(γE-x53) at 14; C-terminal NH2) [SEQ ID NO: 173] | 5.7 | 5.9
30 | HXQGTFTSDLSKQKDKRAAQLFIEWLKAXGPSSGAPPPS (Aib at 2; K(γE-x76) at 14; dAla at 29; C-terminal NH2) [SEQ ID NO: 212] | 14.1 | 6.6
31 | HXQGTFTSDLSKQKESEAAQLFIEWLKAGGPSSGAPPPS (dSer at 2; K(γE-x53) at 14; C-terminal NH2) [SEQ ID NO: 21] | 3.8 | 144
32 | HXQGTFTSDLSKQKDKRRAQDFIEWLKAXGPSSGAPPPS (Aib at 2; K(γE-x70) at 14; dAla at 29; C-terminal NH2) [SEQ ID NO: 209] | 5.4 | 1.9
33 | HXQGTFTSDLSKQKDEEAARLFIEWLKAGGPSSGAPPPS (dSer at 2; K(γE-x53) at 14; C-terminal NH2) [SEQ ID NO: 221] | 1.5 | 9.2
34 | HXQGTFTSDLSKQKEEEAAKDFIEWLKAGGPSSGAPPPS (dSer at 2; K(γE-x53) at 14; C-terminal NH2) [SEQ ID NO: 17] | 1.7 | 93.1
35 | HXQGTFTSDLSKQKEEEAAQDFIEWLKAGGPSSGAPPPS (dSer at 2; K(γE-x53) at 14; C-terminal NH2) [SEQ ID NO: 16] | 2.8 | 117
36 | HXQGTFTSDLSKQKESLAAQDFIEWLKAGGPSSGAPPPS (dSer at 2; K(γE-x53) at 14; C-terminal NH2) [SEQ ID NO: 150] | 6 | 35.5
37 | HXQGTFTSDLSKQKESEAAQDFIEWLKAGGPSSGAPPPS (dSer at 2; K(γE-x53) at 14; C-terminal NH2) [SEQ ID NO: 20] | 3.8 | 104
38 | HXQGTFTSDLSKQKEEEAAXDFIEWLKAGGPSSGAPPPS (dSer at 2; K(γE-x53) at 14; Aib at 20; C-terminal NH2) [SEQ ID NO: 18] | 2.6 | 152
39 | HXQGTFTSDLSKQKDSKRAXDFIEWLKAGGPSSGAPPPS (dSer at 2; K(γE-x70) at 14; Aib at 20; C-terminal NH2) [SEQ ID NO: 196] | 7.8 | 1.8
40 | HXQGTFTSDLSKQKDSRRAQDFIEWLKAXGPSSGAPPPS (dSer at 2; K(γE-X70) at 14; dAla at 29; C-terminal NH2) [SEQ ID NO: 161] | 5 | 2.4
41 | HXQGTFTSDLSKQKDSKAAQDFIEWLKAGGPSSGAPPPS (dSer at 2; K(γE-X95) at 14; C-terminal NH2) [SEQ ID NO: 142] | 4.1 | 2.1
42 | HXQGTFTSDLSKQKDKRAAQLFIEWLKAXGPSSGAPPPS (Aib at 2; K(γE-x70) at 14; dAla at 29; C-terminal NH2) [SEQ ID NO: 211] | 15.5 | 26.4
43 | HXQGTFTSDLSKQKESXAAQLFIEWLKAGGPSSGAPPPS (dSer at 2; K(γE-x53) at 14; Aib at 17; C-terminal NH2) [SEQ ID NO: 15] | 6.6 | 176
